From US20230159645A1 (MERUS N V, published 2023)

How the values were obtained:
human TGF-βRII [1] = molecular target: T1, human TGF-βRII (human, UniProt P37173 23-567); test: cell-based or functional assay
T1 chain: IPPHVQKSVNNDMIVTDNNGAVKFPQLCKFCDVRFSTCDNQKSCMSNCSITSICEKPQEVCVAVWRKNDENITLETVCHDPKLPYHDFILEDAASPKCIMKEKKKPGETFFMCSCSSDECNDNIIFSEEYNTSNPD

human TGF-βRII [2] = molecular target: T1, human TGF-βRII; test: cell-based or functional assay

B1: Reference TGF-βRII antibody TGF1 analog (antibody, human IgG1, kappa, V domains shown)
VH: QLQVQESGPGLVKPSETLSLTCTVSGGSISNSYFSWGWIRQPPGKGLEWIGSFYYGEKTYYNPSLKSRATISIDTSKSQFSLKLSSVTAADTAVYYCPRGPTMIRGVIDSWGQGTLVTVSS
VL: EIVLTQSPATLSLSPGERATLSCRASQSVRSYLAWYQQKPGQAPRLLIYDASNRATGIPARFSGSGSGTDFTLTISSLEPEDFAVYYCQQRSNWPPTFGQGTKVEIKR
Human TGF-βRII [1]
  Fold difference pSMAD PD-1^null vs PD-1^+: 1.3 fold
Human TGF-βRII [2]
  HEK-BLUE-PD-1 TGF-β Reporter Assay, HEK-Blue TGF-β cells: 0.806
  HEK-BLUE-PD-1 TGF-β Reporter Assay, HEK-Blue TGF-β-PD-1+ cells: 0.655
